From publication PMC10883916, “Cbp1 and Cren7 form chromatin-like structures that ensure efficient transcription of long CRISPR arrays” come the findings set out here.

Residue numbers refer to the chain shown, from its start. Numbers in names are those of the source.

In data set [1] the target is T1, Cbp1;Cren7 (Saccharolobus (Sulfolobus) solfataricus …, UniProt Q97ZW9;Q97ZE3 1-150;1-60, |).
T1 sequence 1: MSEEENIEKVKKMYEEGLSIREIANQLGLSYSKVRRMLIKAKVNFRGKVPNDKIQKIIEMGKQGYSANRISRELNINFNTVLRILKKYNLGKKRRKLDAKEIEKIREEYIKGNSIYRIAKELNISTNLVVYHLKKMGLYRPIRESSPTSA
T1 sequence 2: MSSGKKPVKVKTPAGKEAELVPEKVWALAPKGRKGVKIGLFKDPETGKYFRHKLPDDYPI
As to the kind of experiment: EMSA; 12.5 nM Cbp1, 3.125-25 nM Cren7; second Cren7 at higher concentration; EMSA: 800 pM DNA, 10 mM MOPS pH 6.5, 100 mM KCl, 10 mM MgCl2, 2 µg BSA, 10% glycerol, 5 mM DTT, 75 °C 5 min; long templates: 10 mM MOPS pH 6.5, 10 mM MgCl2, 105 mM KCl, 10% glycerol, 10 mM DTT, 5 µg/ml heparin, 2 mM spermidine, 65 °C. The following applies: protein: recombinant;recombinant; tags: ;; copies: 1;2; label: 5'-32P; blunt.

In data set [2] the target is T2, Cbp1 (Saccharolobus (Sulfolobus) solfataricus …, UniProt Q97ZW9 1-150).
T2 sequence: T1 sequence 1
As to the kind of experiment: EMSA; 12.5 nM Cbp1; stronger than CRISPR A; EMSA: 800 pM DNA, 10 mM MOPS pH 6.5, 100 mM KCl, 10 mM MgCl2, 2 µg BSA, 10% glycerol, 5 mM DTT, 75 °C 5 min; long templates: 10 mM MOPS pH 6.5, 10 mM MgCl2, 105 mM KCl, 10% glycerol, 10 mM DTT, 5 µg/ml heparin, 2 mM spermidine, 65 °C. The following applies: protein: recombinant; label: 5'-32P; blunt.

For data set [3], the target named is T1, Cbp1;Cren7. As to the kind of experiment: EMSA; 12.5 nM Cbp1, 3.125-25 nM Cren7; weaker Cren7 affinity than CRISPR A; EMSA: 800 pM DNA, 10 mM MOPS pH 6.5, 100 mM KCl, 10 mM MgCl2, 2 µg BSA, 10% glycerol, 5 mM DTT, 75 °C 5 min; long templates: 10 mM MOPS pH 6.5, 10 mM MgCl2, 105 mM KCl, 10% glycerol, 10 mM DTT, 5 µg/ml heparin, 2 mM spermidine, 65 °C. The following applies: protein: recombinant;recombinant; tags: ;; copies: 1;2; label: 5'-32P; blunt.

The target of data set [4] is T1, Cbp1;Cren7. As to the kind of experiment: EMSA; 12.5 nM Cbp1, 12.5-25 nM Cren7; two Cren7 recruited; EMSA: 800 pM DNA, 10 mM MOPS pH 6.5, 100 mM KCl, 10 mM MgCl2, 2 µg BSA, 10% glycerol, 5 mM DTT, 75 °C 5 min; long templates: 10 mM MOPS pH 6.5, 10 mM MgCl2, 105 mM KCl, 10% glycerol, 10 mM DTT, 5 µg/ml heparin, 2 mM spermidine, 65 °C. The following applies: protein: recombinant;recombinant; tags: ;; copies: 1;2; label: 5'-32P; blunt.

Data set [5] has as its target T2, Cbp1. Put plainly: EMSA; WT reference; EMSA: 800 pM DNA, 10 mM MOPS pH 6.5, 100 mM KCl, 10 mM MgCl2, 2 µg BSA, 10% glycerol, 5 mM DTT, 75 °C 5 min; long templates: 10 mM MOPS pH 6.5, 10 mM MgCl2, 105 mM KCl, 10% glycerol, 10 mM DTT, 5 µg/ml heparin, 2 mM spermidine, 65 °C. The following applies: protein: recombinant; label: 5'-32P; blunt.
The target of data set [6] is T2, Cbp1. As to the kind of experiment: EMSA; not reduced vs WT repeat; EMSA: 800 pM DNA, 10 mM MOPS pH 6.5, 100 mM KCl, 10 mM MgCl2, 2 µg BSA, 10% glycerol, 5 mM DTT, 75 °C 5 min; long templates: 10 mM MOPS pH 6.5, 10 mM MgCl2, 105 mM KCl, 10% glycerol, 10 mM DTT, 5 µg/ml heparin, 2 mM spermidine, 65 °C. The following applies: protein: recombinant; label: 5'-32P; blunt.

The target of another data set is T3, Cbp1 ΔHTH3 (S. solfataricus P2, UniProt Q97ZW9 1-87+136-150, internal_change).
T3 sequence: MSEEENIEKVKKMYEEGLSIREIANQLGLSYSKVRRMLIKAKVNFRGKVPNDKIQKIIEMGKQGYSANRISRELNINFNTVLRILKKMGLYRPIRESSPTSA
Put plainly: EMSA; 80 nM; no apparent effect of mutation; EMSA: 800 pM DNA, 10 mM MOPS pH 6.5, 100 mM KCl, 10 mM MgCl2, 2 µg BSA, 10% glycerol, 5 mM DTT, 75 °C 5 min; long templates: 10 mM MOPS pH 6.5, 10 mM MgCl2, 105 mM KCl, 10% glycerol, 10 mM DTT, 5 µg/ml heparin, 2 mM spermidine, 65 °C. The following applies: protein: recombinant; label: 5'-32P; blunt.

Another data set concerns the target T4, Cbp1 ΔHTH1 (S. solfataricus P2, UniProt Q97ZW9 1-1+51-150, internal_change).
T4 sequence: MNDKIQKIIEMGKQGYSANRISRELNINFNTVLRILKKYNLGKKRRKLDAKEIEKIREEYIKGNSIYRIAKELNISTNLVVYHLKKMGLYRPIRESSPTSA
Put plainly: EMSA; 160 nM; unaffected by mutation vs ΔHTH1 on WT repeat; EMSA: 800 pM DNA, 10 mM MOPS pH 6.5, 100 mM KCl, 10 mM MgCl2, 2 µg BSA, 10% glycerol, 5 mM DTT, 75 °C 5 min; long templates: 10 mM MOPS pH 6.5, 10 mM MgCl2, 105 mM KCl, 10% glycerol, 10 mM DTT, 5 µg/ml heparin, 2 mM spermidine, 65 °C. The following applies: protein: recombinant; label: 5'-32P; blunt.

In data set [7] the target is T1, Cbp1;Cren7. As to the kind of experiment: EMSA; 12.5 nM Cbp1, 3.125-25 nM Cren7; EMSA: 800 pM DNA, 10 mM MOPS pH 6.5, 100 mM KCl, 10 mM MgCl2, 2 µg BSA, 10% glycerol, 5 mM DTT, 75 °C 5 min; long templates: 10 mM MOPS pH 6.5, 10 mM MgCl2, 105 mM KCl, 10% glycerol, 10 mM DTT, 5 µg/ml heparin, 2 mM spermidine, 65 °C. The following applies: protein: recombinant;recombinant; tags: ;; copies: 1;2; label: 5'-32P; blunt.

B1: CRISPR A repeat, 20 bp flanks (Fig. 1e) (dsDNA)
DNA 1: CATCTTCTCTCATCACCTTCGATTAATCCCAAAAGGAATTGAAAGAATGTATAAAGGTAACCAGG
DNA 2: CCTGGTTACCTTTATACATTCTTTCAATTCCTTTTGGGATTAATCGAAGGTGATGAGAGAAGATG
As for B1, in the data set with Cbp1;Cren7 [1], the binding result is recorded as “binds”.

B2: CRISPR F repeat, 20 bp flanks (dsDNA)
DNA 1: AAAATTATTGACAAAAATAGGCTAATCTACTATAGAATTGAAAGCTACACCGATTCCGATACCC
DNA 2: GGGTATCGGAATCGGTGTAGCTTTCAATTCTATAGTAGATTAGCCTATTTTTGTCAATAATTTT
B2: the binding result with Cbp1 [2] and in the data set with Cbp1;Cren7 [3] was “binds” each time.

B3: CRISPR A repeat 1, 20 bp downstream (dsDNA)
DNA 1: GGAAGTATAAAAACACAACAGATTAATCCCAAAAGGAATTGAAAGGAACTAGCTTATAGTTTAGA
DNA 2: TCTAAACTATAAGCTAGTTCCTTTCAATTCCTTTTGGGATTAATCTGTTGTGTTTTTATACTTCC
Regarding B3, the binding result in the data set with Cbp1;Cren7 [4] was “binds”.

B4: CRISPR D repeat, 20 bp flanks (dsDNA)
DNA 1: AACTAACAAATATACGCCTTGATAATCTCTTATAGAATTGAAAGTCAATTTGTGAAACTTGTCC
DNA 2: GGACAAGTTTCACAAATTGACTTTCAATTCTATAAGAGATTATCAAGGCGTATATTTGTTAGTT
As to B4, the binding result with Cbp1;Cren7 [3] is “binds”.

B5: CRISPR A repeat 1, 5 bp flanks (WT) (dsDNA)
DNA 1: CAACAGATTAATCCCAAAAGGAATTGAAAGGAACT
DNA 2: AGTTCCTTTCAATTCCTTTTGGGATTAATCTGTTG
Regarding B5, the binding result with Cbp1 [5] is given as “binds”.

B6: CRISPR A repeat 1 A13C/A14C (A13C/T14G in text) (dsDNA)
DNA 1: B5 DNA 1 with A18C, A19C
DNA 2: B5 DNA 2 with T17G, T18G
Turning to B6, the binding result with Cbp1 [6] is given as “binds”.

B7: CRISPR A repeat 1 T19G/T20G (dsDNA)
DNA 1: B5 DNA 1 with T24G, T25G
DNA 2: B5 DNA 2 with A11C, A12C
As for B7, the binding result with Cbp1 ΔHTH3 is listed as “binds”.

B8: CRISPR A repeat 1 A6C/T7G (dsDNA)
DNA 1: B5 DNA 1 with A11C, T12G
DNA 2: B5 DNA 2 with A24C, T25G
In the case of B8, in the data set with Cbp1 ΔHTH1, the binding result is “binds”.

B9: CRISPR A repeat 1 A22C/A23C (dsDNA)
DNA 1: B5 DNA 1 with A27C, A28C
DNA 2: B5 DNA 2 with T8G, T9G
Turning to B9, in the data set with Cbp1 ΔHTH3, the binding result was “binds”.

B10: ISC1229 non-canonical Cbp1 binding site (dsDNA)
DNA 1: AACTTCAAGCATAGTGTCAACTAAGATTGCCACGTGAATTGAAAGGATTCACGTGGCGATTTTGG
DNA 2: CCAAAATCGCCACGTGAATCCTTTCAATTCACGTGGCAATCTTAGTTGACACTATGCTTGAAGTT
For the molecule B10, in the data set with Cbp1;Cren7 [7], the binding result is listed as “binds”.

B11: CRISPR A repeat 1, 2 bp downstream (dsDNA)
DNA 1: GGAAGTATAAAAACACAACAGATTAATCCCAAAAGGAATTGAAAGGA
DNA 2: TCCTTTCAATTCCTTTTGGGATTAATCTGTTGTGTTTTTATACTTCC
For B11, the binding result with Cbp1;Cren7 [4] is “binds”.
